# Source: publication PMC5501846, “X-Ray snapshots of a pyridoxal enzyme: a catalytic mechanism involving concerted [1,5]-hydrogen sigmatropy in methionine γ-lyase” (Scientific Reports, 2017)
# T1: EhMGL1 (Entamoeba histolytica, UniProt Q86D28)
# T1 construct: gene metg; homotetramer
# T1 sequence (Q86D28 1-389): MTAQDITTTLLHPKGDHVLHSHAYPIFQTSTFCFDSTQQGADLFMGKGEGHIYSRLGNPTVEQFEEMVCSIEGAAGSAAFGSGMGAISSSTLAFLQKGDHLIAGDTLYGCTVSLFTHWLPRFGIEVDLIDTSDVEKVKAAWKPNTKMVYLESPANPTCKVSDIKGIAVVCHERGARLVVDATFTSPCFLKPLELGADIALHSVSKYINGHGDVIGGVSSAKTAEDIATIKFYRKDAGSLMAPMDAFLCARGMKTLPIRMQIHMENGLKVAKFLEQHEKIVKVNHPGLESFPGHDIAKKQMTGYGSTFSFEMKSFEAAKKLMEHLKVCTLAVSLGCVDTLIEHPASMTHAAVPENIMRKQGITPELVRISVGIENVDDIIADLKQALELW
# B1: EhMGL1 (Entamoeba histolytica) (protein)
# chain: T1 sequence (Q86D28 1-389)
# What was measured:
# [1] = molecular target: L-methionine γ-lyase from Entamoeba histolytica (EhMGL1) (Entamoeba histolytica); test: crystal structure; hanging-drop vapor diffusion at 277 K, 1.8 M ammonium sulfate, 0.1 M cacodylate pH 6.6, 0.1 M lithium citrate, 100 μM PLP; substrate-free and methionine-soaked crystals (50 mM L-methionine, 30-120 s, 293 K); tetramer of two catalytic dimers in the crystal
# EhMGL1 [2] = molecular target: T1, EhMGL1; test: X-ray crystallography, […] Å; format: binding; details: covalent, Schiff base with Lys205; substrate-free enzyme
# EhMGL1 [3] = molecular target: T1, EhMGL1; test: X-ray crystallography of methionine-soaked crystals; format: binding; details: covalent Schiff base with PLP in intermediates; Michaelis complex also seen; 50 mM L-methionine soak 30–120 s, 293 K
# purified protein [4] = substrate: COCC[C@H](N)C(=O)O; test: purified protein; details: 100 mM phosphate pH 7.0, 1 mM DTT, 20 μM PLP, 37 °C
# purified protein [5] = substrate: C[Se]CC[C@H](N)C(=O)O; test: purified protein; details: 100 mM phosphate pH 7.0, 1 mM DTT, 20 μM PLP, 37 °C
molecule,measurement,setting,value
L-methionine γ-lyase from Entamoeba histolytica (EhMGL1) (enzyme),stoichiometry N,[1],4
Cc1ncc(COP(=O)(O)O)c(C=O)c1O [pyridoxal 5′-phosphate],"X-ray crystallography, 1.97 Å",EhMGL1 [2],the active site binds a PLP cofactor that forms a Schiff base
"CSCC[C@H](N)C(=O)O [CH3S, L-methionine]",X-ray crystallography of methionine-soaked crystals,EhMGL1 [3],Crystals of EhMGL1 complexed with reaction intermediates were prepared by soaking crystals
B1,Km,purified protein [4],2500 ± 240 µM
same,kcat,purified protein [4],1.04 ± 0.35 s⁻¹
same,kcat/Km,purified protein [4],420 ± 150 M⁻¹ s⁻¹
same,Km,purified protein [5],410 ± 70 µM
